This note sets out measurements from patent US10487337B2, “Methods for monocot plant improvement” (Agresearch Limited, priority 2014, dated 2019).

This assay addresses T1, NINJA (Arabidopsis thaliana, UniProt Q9SV55).
T1 construct: expressed in transfected cells; host or cells: Nicotiana benthamiana leaves (Agrobacterium infiltration)
In words: BiFC interaction with NINJA in Nicotiana benthamiana leaves. Particulars: in plants (FIG. 8). Type of assay: cell-based. The source says: The binary BiFC-Gateway YFP vectors pDEST-VYNE(R)^GW (Venus aa 1-173) and pDEST-VYCE(R)^GW (Venus aa 156-239) with N-terminal fusions, were used to construct the following vectors; pDESTnYFP-BZR1, pDESTnYFP-NINJA, pDESTnYFP-PPD1, pDESTcYFP-BZR1, pDESTcYFP-PPD1, pDESTcYFP-PPD1Δppd, pDESTcYFP-PPD1Δtify and pDESTcYFP-PPD1Δjas*. For transient in planta expression of proteins interacting with PPD1 or BZR, NINJA and TPL were Gateway® sub-cloned into pRSh1, to construct pRSh1-NINJA and pRSh1-TPL. […] When expressed these constructs produced proteins listed in sequences 60, 62, 70 71 72 73 74 75 76 77 78 79: including TOPLESS (TPL), NINJA, Bimolecular Fluorescence (BiFC) nYFP, BiFC cYFP, BiFC nYFP-NINJA, BiFC nYFP-BZR1, BiFC cYFP-PPD1, BiFC cYFP-NINJA, BiFC cYFP-BZR1, BiFC cYFP-PPD1-ppd, BiFC cYFP-PPD1-tify, BiFC cYFP-PPD1-jas*.
Transient BiFC experiments were performed using combinations of pDESTnYFP and pDESTcYFP plasmids, with or without plasmids for the expression of NINJA (pRSh1-NINJA) or TPL (pRSh1-TPL) and Agrobacterium-infiltration of Nicotiana benthamiana leaves. […] Two hours prior to sampling for microscopic fluorescence observations leaves were infiltrated with a 1 μg/ml DAPI solution to stain nuclei. YFP fluorescence and DAPI staining was detected using an Olympus Fluoview FV10i confocal laser scanning microscope. […]

T1 sequence (Q9SV55 with tags, fused parts or gaps): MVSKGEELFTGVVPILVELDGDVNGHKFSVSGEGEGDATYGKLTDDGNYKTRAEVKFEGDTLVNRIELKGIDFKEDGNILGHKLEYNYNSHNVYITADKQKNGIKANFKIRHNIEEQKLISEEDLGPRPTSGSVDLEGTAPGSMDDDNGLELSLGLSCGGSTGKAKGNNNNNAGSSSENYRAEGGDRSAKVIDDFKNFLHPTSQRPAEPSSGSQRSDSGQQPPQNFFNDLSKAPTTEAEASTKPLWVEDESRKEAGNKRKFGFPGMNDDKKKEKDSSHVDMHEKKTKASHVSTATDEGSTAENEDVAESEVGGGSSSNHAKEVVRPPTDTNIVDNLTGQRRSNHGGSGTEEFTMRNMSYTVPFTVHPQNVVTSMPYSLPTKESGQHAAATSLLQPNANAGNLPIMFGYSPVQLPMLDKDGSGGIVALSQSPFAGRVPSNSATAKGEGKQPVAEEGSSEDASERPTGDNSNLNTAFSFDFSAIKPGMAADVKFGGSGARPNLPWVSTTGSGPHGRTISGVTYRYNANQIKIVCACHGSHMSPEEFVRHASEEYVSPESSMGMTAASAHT

B1: PPD1: PEAPOD 1 protein of Arabidopsis thaliana, SEQ ID NO: 1 (protein, listed as Arabidopsis thaliana)
chain: MDVGVSPAKSILAKPLKLLTEEDISQLTREDCRKFLKDKGMRRPSWNKSQAIQQVLSLKALYEPGDDSGAGIFRKILVSQPVNPPRVTTTLIEPSNELEACGRVSYPEDNGACHRMDSPRSAEFSGGSGHFVSEKDGHKTTISPRSPAETSELVGQMTIFYSGKVNVYDGIPPEKARSIMHFAANPIDLPENGIFASSRMISKLISKEKMMELPQKGLEKANSSRDSGMEGQANRKVSLQRYREKRKDRKFSKAKKCPGVASSSLEMFLNCQPRMKAAYSQNLGCTGSPLHSQSPESQTKSPNLSVDLNSEGI
With B1, the “interaction with NINJA” value was “interacted with NINJA in plants”.
